From PMC10189049

Biological target: TCR Vβ3.1 on CH7C17 Jurkat cells
Assay: fluorescence microscopy of labelled protein on cells

Staphylococcal Enterotoxin B (from UniProt P01552 28-266) (natural protein)
MFI at 5 minutes: 427
